± gives the uncertainty stated by the source.
B1: SAM and SH3 domain-containing protein 1, residues 630 to 700; numbered along this chain, O94885 (parent)
chain: GRPPQPKSVEDLLDRINLKEHMPTFLFNGYEDLDTFKLLEEEDLDELNIRDPEHRAVLLTAVELLQEYDSN

Variants of: B1
Experiment: abundance fitness (aPCA) (normalised: wild type 0, dead -1); higher = more abundant; growth selection in yeast, the domain comes from the species named
Conditions: Homo sapiens

Row | Variant | abundance fitness
1 | E40N | 0.196 ± 0.041
2 | E40W | -0.933 ± 0.098
3 | E40S | 0.252 ± 0.032
4 | E40Q | 0.222 ± 0.049
5 | E40M | -0.246 ± 0.056
6 | T35H | 0.022 ± 0.047
7 | T35L | -0.515 ± 0.047
8 | T35E | -0.211 ± 0.067
9 | N17W | -0.956 ± 0.096
10 | L38K | 0.117 ± 0.053
11 | L38I | -0.76 ± 0.096
12 | A56Y | -0.605 ± 0.054
13 | A56M | -0.213 ± 0.046
14 | A56L | -0.334 ± 0.035
15 | R55I | -0.696 ± 0.078
16 | R55V | -0.591 ± 0.057
17 | R55E | -0.522 ± 0.081
18 | N71Y | -0.132 ± 0.062
19 | N71W | -0.256 ± 0.087
20 | N71H | 0.056 ± 0.048
21 | N71C | -0.009 ± 0.12
22 | F27S | 0.406 ± 0.032
23 | F27E | 0.491 ± 0.047
24 | F27C | 0.272 ± 0.04

Row | Variant | abundance fitness
25 | F27V | 0.235 ± 0.037
26 | F36T | -0.64 ± 0.064
27 | F36R | -0.794 ± 0.058
28 | L59Y | -0.823 ± 0.072
29 | L59C | -0.678 ± 0.064
30 | L59Q | -0.478 ± 0.071
31 | L59D | -0.577 ± 0.067
32 | L59W | -0.822 ± 0.079
33 | P3T | -0.014 ± 0.041
34 | P3I | 0.035 ± 0.047
35 | E42L | -0.6 ± 0.045
36 | E42M | -0.476 ± 0.066
37 | E42P | -0.124 ± 0.042
38 | E42Y | -0.539 ± 0.056
39 | E42G | 0.013 ± 0.049
40 | L33A | -0.883 ± 0.087
41 | L33R | -0.926 ± 0.068
42 | L65R | -0.82 ± 0.064
43 | H54D | -0.02 ± 0.044
44 | H54M | -0.501 ± 0.064
45 | R2D | -0.137 ± 0.063
46 | R2P | -0.632 ± 0.091
47 | R2M | -0.442 ± 0.06
48 | D34E | 0.041 ± 0.048

Row | Variant | abundance fitness
49 | D34A | -0.145 ± 0.04
50 | V9C | -0.892 ± 0.13
51 | V9P | -0.632 ± 0.063
52 | V9Y | -0.883 ± 0.087
53 | L13S | -0.887 ± 0.068
54 | L13N | -0.802 ± 0.091
55 | L13I | -1.04 ± 0.11
56 | Q66L | -0.351 ± 0.038
57 | Q66I | -0.563 ± 0.054
58 | Q66K | 0.267 ± 0.041
59 | Q66M | -0.422 ± 0.054
60 | Q66N | 0.059 ± 0.038
61 | Q66A | -0.317 ± 0.048
62 | Y30I | 0.042 ± 0.043
63 | R15I | -0.23 ± 0.051
64 | R15H | -0.342 ± 0.054
65 | R15D | -0.454 ± 0.065
66 | L26H | -0.44 ± 0.066
67 | L26G | -0.697 ± 0.06
68 | L26K | 0.034 ± 0.044
69 | P52G | -0.71 ± 0.057
70 | P52Q | -0.424 ± 0.057
71 | G1A | -0.064 ± 0.055
72 | G1T | 0.016 ± 0.087

Row | Variant | abundance fitness
73 | G1K | 0.163 ± 0.096
74 | G1L | 0.036 ± 0.066
75 | D14N | -0.131 ± 0.048
76 | T60W | -0.378 ± 0.056
77 | E20I | -0.244 ± 0.061
78 | E20T | -0.48 ± 0.065
79 | E20G | -0.673 ± 0.094
80 | D69M | -0.822 ± 0.079
81 | D69K | -0.29 ± 0.055
82 | N28C | -0.582 ± 0.065
83 | N28V | -0.939 ± 0.076
84 | N28L | -0.855 ± 0.058
85 | G29D | -0.837 ± 0.1
86 | G29V | -1.17 ± 0.089
87 | E67C | -0.3 ± 0.057
88 | E67Y | -0.396 ± 0.056
89 | E67A | -0.082 ± 0.048
90 | E67M | -0.342 ± 0.049
91 | E67S | 0.039 ± 0.037
92 | E10M | -0.398 ± 0.06
93 | E10L | -0.532 ± 0.045
94 | P6T | -0.653 ± 0.072
95 | E63V | -0.831 ± 0.059
96 | E63F | -0.866 ± 0.08

Row | Variant | abundance fitness
97 | E63H | -0.075 ± 0.042
98 | E63Y | -0.687 ± 0.064
99 | A61T | -0.479 ± 0.055
100 | A61S | -0.225 ± 0.042
101 | S8H | -0.899 ± 0.09
102 | S8P | -0.758 ± 0.087
103 | S8V | -1.02 ± 0.1
104 | L18I | -0.716 ± 0.077
105 | E31Q | 0.029 ± 0.044
106 | E31H | 0.195 ± 0.038
107 | E31T | 0.251 ± 0.033
108 | I49V | -0.398 ± 0.042
109 | I49Q | -0.92 ± 0.083
110 | I49T | -0.863 ± 0.065
111 | I49N | -0.926 ± 0.076
112 | I49S | -0.876 ± 0.052
113 | T24P | -0.88 ± 0.069
114 | D32V | -0.788 ± 0.06
115 | D51Y | -0.774 ± 0.06
116 | D51L | -0.632 ± 0.042
117 | Y68P | 0.015 ± 0.047
118 | Y68V | -0.038 ± 0.043
119 | Y68L | -0.068 ± 0.038
120 | Y68Q | 0.254 ± 0.048

Row | Variant | abundance fitness
121 | L44C | -0.598 ± 0.075
122 | L44M | -0.702 ± 0.073
123 | L44H | -0.941 ± 0.1
124 | L44Y | -0.755 ± 0.085
125 | K7P | -0.679 ± 0.063
126 | K7F | -0.5 ± 0.053
127 | K7N | -0.142 ± 0.041
128 | N48D | 0.024 ± 0.093
129 | N48I | -0.985 ± 0.24
130 | N48M | -0.516 ± 0.14
131 | H21I | -0.459 ± 0.056
132 | H21R | -0.921 ± 0.056
133 | H21K | -0.712 ± 0.075
134 | H21P | -0.798 ± 0.065
135 | R50H | 0.072 ± 0.046
136 | R50N | -0.027 ± 0.046
137 | Q5T | -0.365 ± 0.057
138 | Q5I | -0.02 ± 0.048
139 | Q5Y | 0.202 ± 0.049
140 | L47Y | -0.783 ± 0.065
141 | L47A | -0.698 ± 0.053
142 | D43M | -0.594 ± 0.056
143 | K19R | -0.032 ± 0.035
144 | L12V | -0.464 ± 0.045

Row | Variant | abundance fitness
145 | D11G | -0.649 ± 0.08
146 | E41L | -0.635 ± 0.05
147 | E41M | -0.578 ± 0.073
148 | D45R | -0.415 ± 0.043
149 | D45C | -0.416 ± 0.053
150 | K37L | -0.555 ± 0.053
151 | V62L | -0.647 ± 0.051
152 | V62Q | -0.769 ± 0.091
153 | V57D | 0.089 ± 0.052
154 | V57S | 0.243 ± 0.034
155 | V57G | -0.195 ± 0.049
156 | E53L | -0.486 ± 0.045
157 | E53P | -0.924 ± 0.09
158 | E53I | -0.542 ± 0.063
159 | E53S | -0.126 ± 0.037
160 | I16E | -0.595 ± 0.1
161 | I16Q | -0.682 ± 0.078
162 | F25P | -0.925 ± 0.084
163 | F25L | -0.266 ± 0.041
164 | F25H | -0.924 ± 0.11
165 | L58H | -0.53 ± 0.07
166 | L58I | 0.167 ± 0.048
167 | L58R | -0.651 ± 0.056

Source: the Human Domainome abundance scans (Beltran et al. 2025)
